Reference: a protein production outcome set (Wang et al. 2014)

Experiment: label from the status in PepcDB records

With “MMIAAAIFTTCVDGNKFFYHREIKVLRHLKRFNKPALKSIKSEDGDVIDCVPITNQPAFDHHLLKNHTIQMRPSFYPVSDSTYTKREAKAVTQVWHKAGECPKNTVPIRRTKKEDLLRPKSIRSFGRKSHQSIPRTTTFDPTLGHQYALMGVRNGKFYGTEVAINLWKPYVQIPKEFSLAQTWVVSGNGSSLNTIEAGWQVYPELYDDNNPRFFVYWTRDGYRKTGCYNLLCSGFVQTSNRYTVGGSITTMSRYRGTQYDLSVLIWKDQKTGNWWLRVNEKDVIGYWPGSLFNSLGREATRVEWGGEIINSKTGGRHTTTDMGSGHFADEGFKKASYFRNLKIVDGTNTLREPQGLYFFADKHNCYNVKTGNGGTSWGAHFFYGGPGRNVKCP” the protein production was “not failed”.

In the case of “MMIGENKNRPHPTIHIPQWDQINDPTATISSPFSSVNLNSVNDYPHSPSPYLDSFASLFRYLPSNELTNDSDSSSGDESSPLTDSFSSDEFRIYEFKIRRCARGRSHDWTECPFAHPGEKARRRDPRKFHYSGTACPEFRKGSCRRGDSCEFSHGVFECWLHPSRYRTQPCKDGTSCRRRICFFAHTTEQLRVLPCSLDPDLGFFSGLATSPTSILVSPSFSPPSESPPLSPSTGELIASMRKMQLNGGGCSWSSPMRSAVRLPFSSSLRPIQAATWPRIREFEIEEAPAMEFVESGKELRAEMYARLSRENSLG”, the protein production is reported as “failed”.

With “MMIITTMQDAIGRTPVFKFTNKDYPIPLNSAIYAKLEHLNPGGSVKDRLGQYLIGEGFKTGKITSKTTIIEPTAGNTGIALALVAIKHHLKTIFVVPEKFSTEKQQIMRALGALVINTPTSEGISGAIKKSKELAESIPDSYLPLQFENPDNPAAYYHTLAPEIVQELGTNLTSFVAGIGSGGTFAGTARYLKERIPAIRLIGVEPEGSILNGGEPGPHEIEGIGVEFIPPFFENLDIDGFETISDEEGFSYTRKLAKKNGLLVGSSSGAAFVAALKEAQRLPEGSQVLTIFPDVADRYLSKGIYL” the protein production was “failed”.

For “MMKLLHLFMDEITMDPLHAVYLTVGLFVITFFNPGANLFVVVQTSLASGRRAGVLTGLGVALGDAFYSGLGLFGLATLITQCGEIFSLIRIVGGAYLLWFAWCSSMRRHSTPQMSTLQQPISAPWYVFFRRGLITDLSNPQTVLFFISIFSVTLHAETPTWARLMAWAGIVLASIIWRVFLSQAFSLPAVRRAYGRMQRVASWVIGAIIGVFALRLIYEGVTQR”, the protein production was “failed”.

For “MMKNKKVEANLSMVVSKTFSGLNMNALKYLLPVWVSPLSGVTLRCVFAAIAFWIIGMFVKPEISTRKEKIFLFLLGALGIYGFMFLYLMGLSKTTPVSSSIFTSLQPIWVFVIAVVFFKEKISAMKIAGISLGLGGAILCILAQKSDDLASDALTGNMLCLLSSIAYAVYLVASNRILKSVGMFTVLKYTFAGAAFSSIVVSAVTGFHAPVFSGPLHWFPLSVLLFVLIFPTVVSYLLVPIGLKYLKTTVVAIYGYLILIVATIVSLLVGQDRFSWSQTIAIGMICVSVYLVEVAETKEKPVSNSDKPSSLPPHGS”, the protein production was “failed”.

In the case of “MMLAVEDVLSELAGEERNERGLPPGFRFHPTDEELITFYLASKIFHGGLSGIHISEVDLNRCEPWELPEMAKMGEREWYFYSLRDRKYPTGLRTNRATTAGYWKATGKDKEVFSGGGGQLVGMKKTLVFYKGRAPRGLKTKWVMHEYRLENDHSHRHTCKEEWVICRVFNKTGDRKNVGLIHNQISYLHNHSLSTTHHHHHEALPLLIEPSNKTLTNFPSLLYDDPHQNYNNNNFLHGSSGHNIDELKALINPVVSQLNGIIFPSGNNNNDEDDFDFNLGVKTEQSSNGNEIDVRDYLENPLFQEASYGLLGFSSSPGPLHMLLDSPCPLGFQL”, the protein production is reported as “failed”.

With “MMMEEKLVINELELGKELANRLMNNLKHTSSVDSNKTLISDILRIYQNAIFMLSFNQDKNILKRSLEIDGKDSKNVFKKRKVSEKNTEKVKVFVATEQENGSIDDGHCWRKYGQKEIHGSKNPRAYYRCTHRFTQDCLAVKQVQKSDTDPSLFEVKYLGNHTCNNITSPKTTTNFSVSLTNTNIFEGNRVHVTEQSEDMKPTKSEEVMISLEDLENKKNIFRTFSFSNHEIENGVWKSNLFLGNFVEDLSPATSGSAITSEVLSAPAAVENSETADSYFSSLDNIIDFGQDWLWS” the protein production was “failed”.

With “MMNLALQQRISELGPWFQNMRFGEIETAPDHFLGDYPAFKWEGFKHVVPKDLEGCSVLDIGCNAGFYALEMKRRNAGRVLGIDSDPRYLEQARFAADHFGLDVEFRQMSVYEVSKLGERFDLVLFMGVLYHLRHPLLALDLLYEHVVADLMLFQCLQRGEERIAKLEEDYDFSEWKIFDRSDFPKLFFVEERFAADPTNWFIPNKAAVEAMLRSSGFVIEANPEREVYLCRRGRRPYKVEPPPG” the protein production was “failed”.

With “MMNNVKYLSFALILAFSACKSGSASSQEPSEKQDTVKIFNLPQIPVVLNTVEQRTDYMVKHYWDRFDFSDTTYINQAEVPEQAWVDYCDLLEHVPLPVAQTAMKETFNRAEKNRKMLHFFEELADKYLYDPNSPMRNEEFYIPVLEALIASPALDETAKIRPQARLELAQKNRLGTKALNFTYTLDSGVKGTLYQFPAEYTLLFINNPGCHACAEMIEGLKASPVINGFTAAKKLKVLSIYPDEELDEWKKHRNDFAKEWTNGYDKELVIKNKNLYDLRAIPTLYLLDKNKTVLLKDATLQKVEQYLAERG” the protein production was “failed”.

For “MMNSRQRYKAFISYSHHDRKAAEWLHRSLESYRPPAGLRAGLGEASGNALKPIFRDRDELSAAADLSEAIRDALDRSDTLIILCSSHAATSRWVDKEVAHFLTLRGADHMISVIAPGAPEGLPLMELLPPALRAALPEGVEPLAVDLRQDADGRRLAKLKIAARLLGVSLDRLVQRDARRRLRLMTAVSGVALAITVGMGAMTVVTLKSRQIAREQRDETEALVAYMLGDLREQLEPVGRLDLLDGVSAKVLAYYAKAQSDQLDDKALAQRAKAQTLLGTIREQRGDLEGAQDAFAQAAATTHALVERSPNDGDRVFDEAQNVFWLAYMGWRRGEIAQAERGFKRYAELAQRLVVIDPNRADWRIEVAYAKNNLGTLLFEEGRAGEALASFRAAFSIFEAERLRAPTDKQRLMDSANARAWVADCLLLMAKPREAFTERKAAAELLAKGEAAFPADQRLAAKSVATQLALARLELDLGRVAEARSRSKAAMNRLRELAALDPTNTRWREYVLIGELDFIDFAIWSGQPVQARSLHAAALANLARTRKGQEGGSWRPDLDGRLARQAVVLALSVGDVATAKRAAKSLVEALETSKVDRETAFGRTDLLGLAQLVDGKPSAAIKALSPRRNALPPASLDVLARAYAAVGERETAARIVRDLKQEGYAHPGFVAFWRESPAGGPPQSGVLK”, the protein production was “failed”.

With “MMNTTTLDRYFDLFDASRTDEKAFDDLISLFSDEITFVLNGQEQHGIDAWKQFVRMVFTANQDIKHMYAGWVPSETGDTMETRWAVCGKSADGSVFTQDGTDIARLNADGKIVYLANVPDDTAMFNQYND” the protein production was “not failed”.

In the case of “MMNYKQLLIDNFAFKTSYVAQFVPGMSIKETKDYIAVDCGLPADTFNIITLLNNNLTEGVEKLYKEVEYYNQKKFPMSVWLWDEEQERDIKSELNKIGLKEAEQNIAMVADLKTISPTINMPVSFTIQQASSPGLIKKFGETLANLFGTSEEAIHVQAFYNQISNLDLWNSENMKLFLGFYEGEIVTVGSLICSKDSIGIYDIATKEEMRGRGFGSTMFNFLLQEAQKFKNTYCVLQASTDGINIYKKSGFQAIGKMTVLENRHVIE”, the protein production is reported as “failed”.

With “MMPLSTPDFASIRDTLLRDLQNLRADADIAPDSDYFVRASSVASAVEGLYQHQSWIARQIFPDTADSEYLEQHARLRGIVRKPAAAASGTLRISGNAGAVVSGSLQLRIGEQLYATPAANPDGSPYAARLDANGQAELPIFASQAGAAGNQPESLPVELMQAPSGVSAKALLLSMRNGVDVEDDAALLDRLLELIRRPPAGGNRHDYRRWAMEVKGVSAAYVYPLRRGLGTVDVVITANGDLPSQEILNNVQAHIEDLRPVTAKSCLVLAPTPRPVDIDVALNLGGANLDAFTPLLQQTLQAYFAGLAPGERLVKSRIEALISDLPGVQDRQLNSPAGNVDPVSDPTKVEWLRLGKLTVGLLKLEHHHHHH” the protein production was “not failed”.

With “MMPNRNTNMLLAYKRLPNWTANSIPETLLNPHNTKVGTWEQLTVLSGKLDVYFFDKDDHVLEKLTFDKDSQMPFIQPQVCYKIEPASNDLECHLTLYCQKGDYFNKKYGMTKTHSEVLFSAPYLKENSKILDLGSGQGRNSLYLTMLGHDVTSVDTNEQSLIHLKNIANEENLPSKINWYDINTANLQETYDFILSTVVFMFLNRPVVPDIIKDMQKHTAIGGYNLIVCAMDTKSYPCPIPFPFTFKKGELKDYYKEWYLIKYNEDLGQLHKTDANGNRLQMQFATLLAKKVK” the protein production was “failed”.

In the case of “MMPSSSTPNAFQYAWRNPWVRLVVFLGLFYLLYLFIGQITTVLVDFAVAFLIAYLANPLLGWLERGRVRRGLGVFFVLLLFLGLLALAGALVVTVGGQFVQLFQNLPAQIDNLNRILDGAVQWLSGRGIPGLADAQTRMTEALRDWIANIGNNIVPILQNALSSTGTLFNRLISIGGVIGQVLLILLLSVYLMLDYARVNASLLRAFPRPWQPKVLEFSDLIGTAVGGYVRGQLLIAAFIGIFVWLGLTIVGIPSAAAIGFLAGAFNIVPYLGPIIGATPALLLALTLPNAGFKMILVVVVFVLANQIEGNFLSPYILSKTTDLHPVTVLLAILVGVALMGFAGALLAVPLVALGKLMLEKYYYPSRVYSQGP”, the protein production is reported as “failed”.

For “MMPYITDIAALEHVGVAAAWTEKVPAFRVLREKRMLDFRAPITVITGENGVGKSTLLEAIAINAGFDTAGGEHTGKFKPSDNPLQTVAKAHKGKEPMRGYFLRAETHFNVASGYRDEAPGWVNLHHMSHGESVMHIVQNAFVGKGLYLMDEPEAGLSFIRQMAILAELNFLAESGAQIIIVTHSPVLMAIPGAEIWEFSASGELHRGFDFEVTTAFRALRDFFEDPEEIAEYMMDVMMDNKGESLEHHHHHH”, the protein production was “failed”.

With “MMQDCEKLLDEPGRLAAVRRYAVLDTAPEEPFDKLTRLVCNVLEVPYAAVTLIDADRQWFKSLVGLSGSEGPRHESFCTHTIKTRDPMIVPDATLDPRFRDSPLVTGAAGIRSYLGVPLETPDGYNLGALCAVDTAPRTFSTSQIEIMKSFASLVLDELELRQIALSDALTGAMTRRGWLAAVEKEMARGARQGTQAAIVLFDVDHFKAINDTHGHAVGDAVLQALTRRCLLHLGPADALGRIGGEEFAVLVPDAGLPEAMELAERLRRSFSDAPIEVAGQALRVTASFGVQGLDGDTGNAGSWLAAADRRLYEAKAAGRNRCHGG” the protein production was “failed”.

For “MMQHCAPTPRLARFLFVEYRMMRQYELVERVQKYKPDANEALLNKAYVYAMQKHGQQKRANGDPYISHPLEVAAILTEMHLDESTIAVALLHDTIEDTTATRAEIDELFGEDIGRLVEGLTKLKKLDLVTRKAKQAENLRKLLLAISDDVRVLLVKLADRLHNMRTMEYMPADKRSRISEETMEIYAPLAGRMGMQDMRDELEDLSFRYLNPEAYETVTNRLLELETRNEGLIKKIEDELRELLVANGLLGTHVKGRQKKPYSVFRKMQSKSLSFEQLSDVYGFRILVDDIPGCYRALGIVHTRWRVVPGRFKDYISTPKQNDYRSIHTTIVGPSRQRIELQIRTKRMHEIAEFGIAAHALYKDGENGEGDLLSKESNAYSWLRHTIESLAEGDSPEEFLEHTKLELFQDQVFCFTPKGKLIALPRGATPIDFAYAVHTNIGDTTVGAKINGRIMPLVTRLNNGDEVEIIRSGVQVPPAAWEEVVVTGKARSAIRRATRMAIRKQYSGLGYRILERTFERAGKAFSREALKPVLHRLAQKDVEDAIAAVGRGEVSSLDVLRAVFPDYQDERVTVKMTGDDGWFNMRSASGMVFKIPGKSRSVLEDDGAAEMLDGPDPLPIRGLSGNVDVHFSAAGAVPGDRIVGIMEKGKGITIYPIQAPALQRFDDEPERWIDVRWDLDEANKSRFMARVMINALNEPGTLASVAQSIATLDVNIRGLNMVRIGTDFSELALDVEVWDLRQLNQLLSQLKDLDCVSTVARAFD”, the protein production was “failed”.

For “MMQIDSIEIGGKVYQFFKSDLGNAPLLFIKGSKGYAMCGYLNMETSNKVGDIAVRVMGVKTLDDMLSAKVVEASQEAQKVGINPGDVLRNVIDKL”, the protein production was “not failed”.
